Experimental data: US20140348865A1, “[…] ON AN HIV-1 V1V2 SITE-OF-VULNERABILITY” (The United States of America, as represented by the …, priority 2011, published 2014)
pKd: −log10 of the molar value.

Tests used:
[1] = molecular target: epitope-scaffold 2ZJR_B; experiment: ELISA, PG9 dilution series
[2] = molecular target: gp120 of HIV-1 strain 16055, full length (HIV-1); experiment: ELISA, PG9 dilution series
[3] = molecular target: epitope-scaffold 1VH8_C; experiment: ELISA, PG9 dilution series
[4] = molecular target: 1JO8-ZM109 V1V2 scaffold; experiment: ELISA, PG9 dilution series
[5] = molecular target: Env of HIV-1 strain CNE30 (pseudovirus) (HIV-1); experiment: cell-based or functional assay
[6] = molecular target: Env of HIV-1 strain CNE56 (pseudovirus) (HIV-1); experiment: cell-based or functional assay
[7] = molecular target: Env of HIV-1 strain JRFL (pseudovirus) (HIV-1); experiment: cell-based or functional assay
[8] = molecular target: Env of HIV-1 strain 3873 (pseudovirus) (HIV-1); experiment: cell-based or functional assay
[9] = molecular target: Env of HIV-1 strain X2088 (pseudovirus) (HIV-1); experiment: cell-based or functional assay
[10] = molecular target: Env of HIV-1 strain 6631 (pseudovirus) (HIV-1); experiment: cell-based or functional assay
[11] = molecular target: Env of HIV-1 strain ZM135 (pseudovirus) (HIV-1); experiment: cell-based or functional assay
[12] = molecular target: Env of HIV-1 strain 6471 (pseudovirus) (HIV-1); experiment: cell-based or functional assay
[13] = molecular target: Env of HIV-1 strain 398 (pseudovirus) (HIV-1); experiment: cell-based or functional assay
[14] = molecular target: Env of HIV-1 strain A03349M1 (pseudovirus) (HIV-1); experiment: cell-based or functional assay
[15] = molecular target: Env of HIV-1 strain BG 1168 (pseudovirus) (HIV-1); experiment: cell-based or functional assay
[16] = molecular target: Env of HIV-1 strain T251-18 (pseudovirus) (HIV-1); experiment: cell-based or functional assay
[17] = molecular target: Env of HIV-1 strain 6405 (pseudovirus) (HIV-1); experiment: cell-based or functional assay
[18] = molecular target: Env of HIV-1 strain 0439 (pseudovirus) (HIV-1); experiment: cell-based or functional assay
[19] = molecular target: Env of HIV-1 strain QH209 (pseudovirus) (HIV-1); experiment: cell-based or functional assay
[20] = molecular target: Env of HIV-1 strain 7165.18 (pseudovirus) (HIV-1); experiment: cell-based or functional assay
[21] = molecular target: Env of HIV-1 strain QH0515 (pseudovirus) (HIV-1); experiment: cell-based or functional assay
[22] = molecular target: Env of HIV-1 strain CNE4 (pseudovirus) (HIV-1); experiment: cell-based or functional assay
[23] = molecular target: Env of HIV-1 strain 6322 (pseudovirus) (HIV-1); experiment: cell-based or functional assay
[24] = molecular target: Env of HIV-1 strain RHPA (pseudovirus) (HIV-1); experiment: cell-based or functional assay
[25] = molecular target: linked dimers of the gp120 V1/V2 domain; experiment: gel filtration shift
[26] = molecular target: linked dimers of the gp120 V1/V2 domain; experiment: SPR
[27] = molecular target: epitope-scaffold 2ZJR_A; experiment: ELISA, antibody dilution series on the scaffold
[28] = molecular target: 1X3E; experiment: ELISA, antibody dilution series on the scaffold
[29] = molecular target: 1JO8-ZM109 V1V2 scaffold; experiment: ELISA, antibody dilution series on the scaffold
[30] = molecular target: epitope-scaffold 1VH8_C; experiment: ELISA, antibody dilution series on the scaffold after large-scale expression

For monoclonal antibody PG9, the EC50 (read off the curve) [1] was 0.01 µg/mL, the EC50 (read off the curve) [2] was 0.004 µg/mL and the EC50 (read off the curve) [3] was 0.03 µg/mL. For the same substance, the EC50 (read off the curve) [4] was 0.03 µg/mL, the neutralization IC50, Env-pseudovirus, TZM-bl cells [5] was > 50 µg/mL and the neutralization IC50, Env-pseudovirus, TZM-bl cells [6] was > 50 µg/mL. The neutralization IC50, Env-pseudovirus, TZM-bl cells [7] was > 50 µg/mL, the neutralization IC50, Env-pseudovirus, TZM-bl cells [8] was > 50 µg/mL and the neutralization IC50, Env-pseudovirus, TZM-bl cells [9] was > 50 µg/mL. The neutralization IC50, Env-pseudovirus, TZM-bl cells [10] was > 50 µg/mL, the neutralization IC50, Env-pseudovirus, TZM-bl cells [11] was > 50 µg/mL and the neutralization IC50, Env-pseudovirus, TZM-bl cells [12] was > 50 µg/mL. The neutralization IC50, Env-pseudovirus, TZM-bl cells [13] was > 50 µg/mL, the neutralization IC50, Env-pseudovirus, TZM-bl cells [14] was > 50 µg/mL and the neutralization IC50, Env-pseudovirus, TZM-bl cells [15] was > 50 µg/mL. For the same substance, the neutralization IC50, Env-pseudovirus, TZM-bl cells [16] was > 50 µg/mL, the neutralization IC50, Env-pseudovirus, TZM-bl cells [17] was > 50 µg/mL and the neutralization IC50, Env-pseudovirus, TZM-bl cells [18] was > 50 µg/mL. For the same substance, the neutralization IC50, Env-pseudovirus, TZM-bl cells [19] was > 50 µg/mL, the neutralization IC50, Env-pseudovirus, TZM-bl cells [20] was > 50 µg/mL and the neutralization IC50, Env-pseudovirus, TZM-bl cells [21] was > 50 µg/mL. The neutralization IC50, Env-pseudovirus, TZM-bl cells [22] was > 50 µg/mL, the neutralization IC50, Env-pseudovirus, TZM-bl cells [23] was > 50 µg/mL and the neutralization IC50, Env-pseudovirus, TZM-bl cells [24] was > 50 µg/mL. The percent active for PG9 binding [25] was 100%, the pKd [26] was > 6.00 and the EC50 (read off the curve) [27] was 0.3 µg/mL. For the same substance, the EC50 (read off the curve) [28] was 1 µg/mL, the EC50 (read off the curve) [29] was 0.5 µg/mL and the EC50 (read off the curve) [30] was 0.8 µg/mL.
